According to PMC5098186, “Nuclear import of dimerized ribosomal protein Rps3 in complex with its chaperone Yar1” (Scientific Reports, 2016):

T1: Kap60ΔIBB (S. cerevisiae, UniProt Q02821 81-542)
T1 construct: Kap60/Srp1 (importin α) of S. cerevisiae lacking the N-terminal IBB domain (80 amino acids); also called purified Kap60ΔIBB; purified Kap60; source: E. coli BL21 (DE3) Rosetta Star, purified (glutathione-agarose, eluted with TEV protease)
T1 sequence (looked up): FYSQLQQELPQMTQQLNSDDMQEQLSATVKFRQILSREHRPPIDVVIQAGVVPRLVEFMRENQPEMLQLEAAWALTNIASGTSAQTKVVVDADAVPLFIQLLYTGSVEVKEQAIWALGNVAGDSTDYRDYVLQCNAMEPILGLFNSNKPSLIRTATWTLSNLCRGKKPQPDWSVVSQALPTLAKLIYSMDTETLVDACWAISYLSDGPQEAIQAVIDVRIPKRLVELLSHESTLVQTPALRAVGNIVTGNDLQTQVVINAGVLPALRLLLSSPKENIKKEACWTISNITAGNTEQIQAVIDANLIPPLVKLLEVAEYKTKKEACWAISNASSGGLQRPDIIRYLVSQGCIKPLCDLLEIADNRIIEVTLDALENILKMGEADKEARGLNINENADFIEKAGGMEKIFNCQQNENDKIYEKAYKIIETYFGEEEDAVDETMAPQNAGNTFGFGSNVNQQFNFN

T2: GST-Kap123 (S. cerevisiae, UniProt P40069 1-1113)
T2 construct: Kap123 (karyopherin β4) of S. cerevisiae, recombinant; also called GST-tagged Kap123; source: E. coli BL21 (DE3) Rosetta Star, immobilized on glutathione-agarose beads
T2 sequence (looked up): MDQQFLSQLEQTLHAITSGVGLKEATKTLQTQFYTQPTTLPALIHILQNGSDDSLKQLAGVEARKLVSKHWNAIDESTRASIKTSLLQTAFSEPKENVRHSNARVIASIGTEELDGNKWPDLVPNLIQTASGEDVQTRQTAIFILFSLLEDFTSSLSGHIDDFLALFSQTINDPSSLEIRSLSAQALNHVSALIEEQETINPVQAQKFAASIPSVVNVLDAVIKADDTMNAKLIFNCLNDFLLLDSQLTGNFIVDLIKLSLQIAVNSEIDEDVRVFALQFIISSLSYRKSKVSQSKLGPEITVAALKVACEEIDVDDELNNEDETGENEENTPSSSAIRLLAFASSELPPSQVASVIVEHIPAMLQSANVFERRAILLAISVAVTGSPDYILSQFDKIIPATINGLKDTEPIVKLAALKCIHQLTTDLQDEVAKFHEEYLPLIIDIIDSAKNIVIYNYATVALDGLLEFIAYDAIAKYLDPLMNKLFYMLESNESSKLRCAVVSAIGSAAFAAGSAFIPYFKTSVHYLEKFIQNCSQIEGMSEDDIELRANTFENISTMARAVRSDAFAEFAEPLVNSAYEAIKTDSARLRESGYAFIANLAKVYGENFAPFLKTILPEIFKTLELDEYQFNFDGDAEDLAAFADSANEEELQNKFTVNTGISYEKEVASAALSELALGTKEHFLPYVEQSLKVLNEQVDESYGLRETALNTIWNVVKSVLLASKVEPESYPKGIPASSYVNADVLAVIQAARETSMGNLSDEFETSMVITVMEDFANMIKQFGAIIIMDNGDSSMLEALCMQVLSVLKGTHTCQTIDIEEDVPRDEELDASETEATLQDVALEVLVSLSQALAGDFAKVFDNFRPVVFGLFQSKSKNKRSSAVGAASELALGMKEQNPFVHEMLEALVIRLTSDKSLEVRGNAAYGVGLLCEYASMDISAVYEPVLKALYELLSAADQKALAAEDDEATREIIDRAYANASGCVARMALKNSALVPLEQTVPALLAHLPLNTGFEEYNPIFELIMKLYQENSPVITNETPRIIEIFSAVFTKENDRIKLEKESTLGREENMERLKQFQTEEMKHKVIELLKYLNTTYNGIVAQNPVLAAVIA

T3: GST-Kap60ΔIBB (S. cerevisiae, UniProt Q02821 81-542)
T3 construct: Kap60/Srp1 (importin α) of S. cerevisiae lacking the N-terminal IBB domain (80 amino acids); GST can be removed with TEV protease; also called GST-tagged Kap60ΔIBB; source: E. coli BL21 (DE3) Rosetta Star, immobilized on glutathione-agarose beads
T3 sequence (looked up): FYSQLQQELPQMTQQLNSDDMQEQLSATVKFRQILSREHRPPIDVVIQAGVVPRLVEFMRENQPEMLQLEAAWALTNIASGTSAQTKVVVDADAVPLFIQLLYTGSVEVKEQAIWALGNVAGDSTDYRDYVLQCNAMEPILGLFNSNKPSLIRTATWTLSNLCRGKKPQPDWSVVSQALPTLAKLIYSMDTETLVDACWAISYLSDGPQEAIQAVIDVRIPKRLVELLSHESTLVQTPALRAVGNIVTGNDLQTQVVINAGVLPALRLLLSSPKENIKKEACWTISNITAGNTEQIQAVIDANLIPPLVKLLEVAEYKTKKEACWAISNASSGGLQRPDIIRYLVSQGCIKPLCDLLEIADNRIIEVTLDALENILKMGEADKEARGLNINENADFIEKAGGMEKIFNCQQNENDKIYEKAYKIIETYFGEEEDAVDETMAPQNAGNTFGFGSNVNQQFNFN

B1: His6-Rps3 (natural protein, S. cerevisiae, UniProt P05750 1-240, looked up)
chain: MVALISKKRKLVADGVFYAELNEFFTRELAEEGYSGVEVRVTPTKTEVIIRATRTQDVLGENGRRINELTLLVQKRFKYAPGTIVLYAERVQDRGLSAVAQAESMKFKLLNGLAIRRAAYGVVRYVMESGAKGCEVVVSGKLRAARAKAMKFADGFLIHSGQPVNDFIDTATRHVLMRQGVLGIKVKIMRDPAKSRTGPKALPDAVTIIEPKEEEPILAPSVKDYRPAEETEAQAEPVEA
notes: ribosomal protein Rps3 of S. cerevisiae, recombinant; also called wild-type Rps3 (of the His6-Rps3/Flag-Yar1 complex); source: E. coli BL21 (DE3) Rosetta Star, purified as His6-Rps3/Flag-Yar1 complex (Ni-NTA agarose); not shown: His6, N-terminal, kept

Columns and labels:
Settings in all cases: both partners purified
His6-Rps3 = target: B1; assay: pull-down; His6-Rps3/Flag-Yar1 complex immobilized via His6-Rps3 on Ni-NTA agarose, incubated with increasing amounts of purified Kap60ΔIBB for 1 h at 4 °C; eluted with 300 mM imidazole (Ni-NTA eluate); Coomassie staining
Kap60ΔIBB = target: T1, Kap60ΔIBB; assay: as above
GST-Kap123 = target: T2, GST-Kap123; assay: pull-down; GST-tagged importins immobilized on glutathione-agarose beads, incubated with purified His6-Rps3/Flag-Yar1 complex or purified Flag-Yar1; 50 mM Tris pH 7.5, 150 mM NaCl, 1 mM DTT; eluted by boiling (Fig. 2b, Supplementary Fig. S2) or by TEV cleavage (Fig. 2c); Coomassie staining or Western blotting
GST-Kap60ΔIBB = target: T3, GST-Kap60ΔIBB; assay: as above

binding result (His6-Rps3)	binding result (Kap60ΔIBB)	binding result (GST-Kap123)	binding result (GST-Kap60ΔIBB)	Binder
binds	–	–	–	Flag-Yar1 (natural protein, S. cerevisiae, UniProt P46683 1-200, looked up, Yar1, specific chaperone of Rps3, S. cerevisiae, recombinant) MGLHSEPLDQEDQDTIILDARAGDLDSLKDIFTTLVSPELLSTCKESESDSTALHMAAANGHIETVRYILETVSRANSAEDLKAFVNEVNKTGNTALHWASLNGKLDVVKLLCDEYEADPFIRNKFGHDAIFEAENSGKEEVETYFLKKYDVEPEDDEEDTQTEGKNSVQITKGTEIEQVTKEATEALREETEKLNINKD
–	binds	binds	binds	B1
